The results in this text go back to publication PMC10844655, “G-quadruplexes promote the motility in MAZ phase-separated condensates to activate CCND1 expression and contribute to hepatocarcinogenesis”.

The target in data set [1] is T1, MAZ WT (human, UniProt P56270 1-477).
T1 sequence: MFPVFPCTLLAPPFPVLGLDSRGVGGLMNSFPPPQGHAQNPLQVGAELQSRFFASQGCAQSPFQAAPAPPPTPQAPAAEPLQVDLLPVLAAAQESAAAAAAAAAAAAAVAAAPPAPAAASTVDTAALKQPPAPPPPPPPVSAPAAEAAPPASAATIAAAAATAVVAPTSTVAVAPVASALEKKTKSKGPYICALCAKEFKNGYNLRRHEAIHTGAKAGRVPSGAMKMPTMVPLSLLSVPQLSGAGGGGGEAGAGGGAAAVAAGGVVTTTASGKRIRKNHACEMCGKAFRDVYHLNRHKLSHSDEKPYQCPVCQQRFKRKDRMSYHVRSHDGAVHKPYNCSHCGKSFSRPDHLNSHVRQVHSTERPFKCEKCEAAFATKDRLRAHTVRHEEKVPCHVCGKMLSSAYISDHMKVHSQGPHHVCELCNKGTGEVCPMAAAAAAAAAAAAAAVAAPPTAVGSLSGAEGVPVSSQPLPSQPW
Nature of the data set: EMSA; Binding buffer 250 mM HEPES, 500 mM KCl, 20 mM MgSO4, 10 mM DTT pH 8.0 (so in the source), on ice 30 min; G4 oligos annealed in 50 mM Tris-HCl, 50 mM KCl, 40% PEG200; 8% native PAGE (G4 gels with 100 mM KCl, 40% PEG200). The settings on record: protein: recombinant, tags: His6 (also mCherry-His6 fusion), label: FAM.

The target of data set [2] is T1, MAZ WT. Kind of data set: EMSA; KCl-annealed; Binding buffer 250 mM HEPES, 500 mM KCl, 20 mM MgSO4, 10 mM DTT pH 8.0 (so in the source), on ice 30 min; G4 oligos annealed in 50 mM Tris-HCl, 50 mM KCl, 40% PEG200; 8% native PAGE (G4 gels with 100 mM KCl, 40% PEG200). To be noted: protein: recombinant, tags: His6 (also mCherry-His6 fusion), label: FAM.
The target in another data set is BRD4-IDR (UniProt O60885 674-1351). Kind of data set: EMSA; Binding buffer 250 mM HEPES, 500 mM KCl, 20 mM MgSO4, 10 mM DTT pH 8.0 (so in the source), on ice 30 min; G4 oligos annealed in 50 mM Tris-HCl, 50 mM KCl, 40% PEG200; 8% native PAGE (G4 gels with 100 mM KCl, 40% PEG200). The settings on record: protein: recombinant, tags: EGFP, His6, label: FAM.
The target of another data set is MED1-IDR (UniProt Q15648 948-1574). The data set is described as above. To be noted: protein: recombinant, tags: EGFP, His6, label: FAM.
In data set [3] the target is T1, MAZ WT. Nature of the data set: competition; unlabeled WT vs FAM-WT; Binding buffer 250 mM HEPES, 500 mM KCl, 20 mM MgSO4, 10 mM DTT pH 8.0 (so in the source), on ice 30 min; G4 oligos annealed in 50 mM Tris-HCl, 50 mM KCl, 40% PEG200; 8% native PAGE (G4 gels with 100 mM KCl, 40% PEG200). The settings on record: protein: recombinant; tags: His6 (also mCherry-His6 fusion); label: FAM; G4 parallel, intra- and/or intermolecular.

The next data set addresses T2, MAZ(ZF2-3) (human, UniProt P56270 279-329).
T2 sequence: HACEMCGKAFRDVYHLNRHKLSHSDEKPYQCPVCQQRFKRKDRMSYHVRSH
Kind of data set: EMSA; Binding buffer 250 mM HEPES, 500 mM KCl, 20 mM MgSO4, 10 mM DTT pH 8.0 (so in the source), on ice 30 min; G4 oligos annealed in 50 mM Tris-HCl, 50 mM KCl, 40% PEG200; 8% native PAGE (G4 gels with 100 mM KCl, 40% PEG200). The settings on record: protein: recombinant; tags: mCherry; His6; label: FAM; G4 parallel, intra- and/or intermolecular.

A further data set addresses T3, MAZ(ZF3-4) (human, UniProt P56270 307-360).
T3 sequence: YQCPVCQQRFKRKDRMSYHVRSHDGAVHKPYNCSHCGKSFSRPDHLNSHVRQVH
The data set is described as above. To be noted: protein: recombinant; tags: mCherry; His6; label: FAM; G4 parallel, intra- and/or intermolecular.

For another data set, the target named is T4, MAZ(ZF2-4) (human, UniProt P56270 279-360).
T4 sequence: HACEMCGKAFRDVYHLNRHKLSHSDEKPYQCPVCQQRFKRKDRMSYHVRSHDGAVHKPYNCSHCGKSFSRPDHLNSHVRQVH
Described as above. To be noted: protein: recombinant; tags: mCherry; His6; label: FAM; G4 parallel, intra- and/or intermolecular.

Another data set concerns the target T5, MAZ(ZF4) (human, UniProt P56270 337-360).
T5 chain: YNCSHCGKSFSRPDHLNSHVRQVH
Described as above. To be noted: protein: recombinant; tags: mCherry; His6; label: FAM; G4 parallel, intra- and/or intermolecular.

[4] abbreviates: G4 parallel, intra- and/or intermolecular.

Sequence of MED1-IDR (Q15648 948-1574): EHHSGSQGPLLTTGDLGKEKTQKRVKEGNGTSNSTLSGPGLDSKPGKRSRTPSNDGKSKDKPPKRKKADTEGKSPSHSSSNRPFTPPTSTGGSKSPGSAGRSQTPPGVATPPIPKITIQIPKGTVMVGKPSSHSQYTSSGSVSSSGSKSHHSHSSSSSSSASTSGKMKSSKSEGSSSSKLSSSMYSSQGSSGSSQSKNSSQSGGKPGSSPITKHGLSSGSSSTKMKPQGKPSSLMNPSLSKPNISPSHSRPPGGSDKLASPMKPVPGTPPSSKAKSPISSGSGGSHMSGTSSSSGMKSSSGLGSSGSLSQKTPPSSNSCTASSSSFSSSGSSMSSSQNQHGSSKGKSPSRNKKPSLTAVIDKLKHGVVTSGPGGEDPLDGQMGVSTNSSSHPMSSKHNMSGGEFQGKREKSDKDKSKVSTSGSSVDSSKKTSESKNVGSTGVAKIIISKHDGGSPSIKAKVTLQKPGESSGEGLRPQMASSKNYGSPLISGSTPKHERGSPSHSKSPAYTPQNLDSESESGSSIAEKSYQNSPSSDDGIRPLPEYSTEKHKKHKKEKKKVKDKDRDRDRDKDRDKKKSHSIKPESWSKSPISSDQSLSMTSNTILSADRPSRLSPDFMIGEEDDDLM

B1: MYB-G4 (structured_DNA)
DNA: GGAGGAGGAGGAGGAGGAGGAGGA
Turning to B1, in the data set with MAZ WT [1] (2 G4s with two quartets), the binding result was “binds”.

B2: TEL-G4 (structured_DNA)
DNA: TAGGGTTAGGGTTAGGGTTAGGGTTAG
In the case of B2, the binding result in the data set with MAZ WT [1] (G4 hybrid, 3 quartets) was “binds”.

B3: MYC-G4 (Table S2) (structured_DNA)
DNA: TGAGGGTGGGTAGGGTGGGTAA
Consider B3, for which the binding result in the data set with MAZ WT [1] (G4 parallel, 3 quartets) is “binds”.

B4: BS1 (dsDNA)
DNA 1: AGGGGGAGGGGGCG
DNA 2: CGCCCCCTCCCCCT
On to B4, for which the binding result with MAZ WT [1] (blunt) is “binds”.

B5: BS2 (dsDNA)
DNA 1: AGCGGGAGGGGGGC
DNA 2: GCCCCCCTCCCGCT
Turning to B5, the binding result with MAZ WT [1] (blunt) is “binds”.

B6: CCND1-G4 Mut1 (ssDNA)
DNA: ATGAGAGCGAGAGAGAGACGAGAGCGAGCGCAGAGAGAGAGAGCGCGAGCG
Turning to B6, the binding result in the data set with MAZ WT [2] (no G4), in the data set with BRD4-IDR (no G4) and with MED1-IDR (no G4) was “no binding” throughout.

B7: MDM2-G4 (structured_DNA)
DNA: GGGGCGCGGGGCGCGGGGCATGGGG
In the case of B7, the binding result with MAZ WT [1] (G4 antiparallel, 4 quartets) is “binds”.

B8: BS3 (dsDNA)
DNA 1: GGGGGGCGGGGGCG
DNA 2: CGCCCCCGCCCCCC
For the molecule B8, in the data set with MAZ WT [1] (blunt), the binding result is given as “binds”.

B9: BCL2-G4 (structured_DNA)
DNA: GGGCGCGGGAGGAATTGGGCGGG
For B9, in the data set with MAZ WT [1] (G4 hybrid, 3 quartets), the binding result was “binds”.

B10: CCND1-G4 Mut2 (structured_DNA)
DNA: ATGGGAGCGAGAGGAGGGCGGGGGCGGACGCAGGAGGAGGGGGCGCGGGCG
Take B10: the binding result in the data set with MAZ WT [2] (intermolecular parallel G4) is recorded as “binds”.

B11: CCND1-G4 WT (structured_DNA)
DNA: ATGGGAGCGGGAGGGGGGCGGGGGCGGGCGCAGGGGGAGGGGGCGCGGGCG
As for B11, the binding result is on record as “binds” with MAZ WT [3]; “no binding” with MAZ(ZF2-3); “no binding” with MAZ(ZF3-4); “binds” with BRD4-IDR (setting [4]); “binds” with MAZ(ZF2-4); “no binding” with MAZ(ZF4). For the same molecule, the binding result in the data set with MED1-IDR (setting [4]) is “binds”.
